{
  "source": "patent US20220354929A1",
  "about": "“PEPTIDES AND USES THEREOF” (LATERAL IP PTY LTD, priority 2019, published 2022)",
  "key": {"[1]": {"system": "dorsal horn neurones", "experiment": "whole-cell patch clamp recording in spinal cord slices from Chung models of neuropathic pain: membrane properties of dorsal horn neurones", "format": "cell-based, rat", "conditions": "for ΔVm, change in membrane potential: prolactin 500 nM vs rest", "source_text": "(§1) An in vitro spinal cord slice with intact dorsal root afferents combined with single-cell whole-cell patch clamp electrophysiological recording techniques was used to assess the electrophysiological properties of the peptides having the amino acid sequence of SEQ ID NO:2, 3, 4 and 5.\nThe spinal nerve ligation model (Chung model) was first reported by Kim and Chung (1992; Pain, 50(3):355-63) and involves a single tight ligation of the L5 spinal nerve. […] This model has been used as a “gold standard” model for assessing the efficacy of novel compounds targeting neuropathic pain.\nAdult male Sprague-Dawley rats, 8-9 weeks old, weighing 220-250 g at the time of surgery, were purchased from Charles River UK Ltd. The animals were housed in groups of 4 in an air-conditioned room on a 12-hour light/dark cycle. Food and water were available ad libitum. They were allowed to acclimatise to the experimental environment for three days by leaving them on a raised metal mesh for at least 40 min. The baseline paw withdrawal threshold (PWT) was examined using a series of graduated von Frey hairs for 3 consecutive days before surgery and re-assessed on the 6th to 8th day after surgery and on the 12th to 14th day after surgery before drug dosing. Each rat was anaesthetized with 5% isoflurane mixed with oxygen (2L per min) followed by an intramuscular (i.m.) injection of ketamine 90 mg/kg plus xylazine 10 mg/kg. The back was shaved and sterilized with povidone-iodine. The animal was placed in a prone position and a para-medial incision was made on the skin covering the L4-6 level. The L5 spinal nerve was carefully isolated and tightly ligated with 6/0 silk suture. The wound was then closed in layers after a complete hemostasis. A single dose of antibiotics (Amoxipen, 15 mg/rat, i.p.) was routinely given for prevention of infection after surgery. The animals were placed in a temperature-controlled recovery chamber until fully awake before being returned to their home cages.\n(§2) Chung model rats, aged 8 to 12 weeks, were housed in an air-conditioned room on a 12 hour light/dark cycle with food and water available ad libitum. The rats were terminally anaesthetized using isofluorane and decapitated. The vertebral column, rib cage and surrounding tissues were rapidly removed and pinned under ice-cold (<4° C.), high sucrose-containing artificial cerebrospinal fluid (aCSF) comprising: 127 mM sucrose, 1.9 mM KCl, 1.2 mM KH2PO4, 0.24 mM CaCl2, 3.9 mM MgCl2, 26 mM NaHCO3, 10 mM D-glucose and 0.5 mM ascorbic acid. A laminectomy was performed and the spinal cord and associated roots gently dissected and teased out of the spinal column and surrounding tissues. Dura and pia mater and ventral roots were subsequently removed with fine forceps and the spinal cord hemisected. Care was taken to ensure dorsal root inputs to the spinal cord were maintained. The hemisected spinal cord-dorsal root preparations were secured to a tissue slicer and spinal cord slices (400 to 450 μm thick) with dorsal roots attached were cut in chilled (<4° C.) high sucrose aCSF using a Leica VT1000s microtome.\n(§3) Slices were transferred to a small beaker containing ice cold aCSF with 127 mM NaCl, 1.9 mM KCl, 1.2 mM KH2PO4, 1.3 mM MgCl2, 2.4 mM CaCl2, 26 mM NaHCO3 and 10 mM D-glucose, and rapidly warmed to 35° C. ±1° C. in a temperature-controlled water bath over a 20 minute period, then subsequently removed and maintained at room temperature (22° C. ±2° C.) prior to electrophysiological recording. Electrophysiological recording was performed in aCSF comprising 127 mM NaCl, 1.9 mM KCl, 1.2 mM KH2PO4, 1.3 mM MgCl2, 2.4 mM CaCl2, 26 mM NaHCO3 and 10 mM D-glucose.\nWhole-cell recordings were performed at 34-35° C. from Lamina I or II neurones in the dorsal horn of the spinal cord slices using Axopatch 1D and/or Multiclamp 700B amplifies and using the “blind” version of the patch-clamp technique. […]"}, "[2]": {"system": "dorsal root afferent-mediated synaptic inputs to dorsal horn neurones", "experiment": "whole-cell recording in spinal cord slices from Chung models: dorsal root afferent-mediated synaptic inputs (evoked EPSPs/IPSPs)", "format": "cell-based, rat", "conditions": "for effect on dorsal root-evoked IPSPs (in words): prolactin 500 nM, 0.1 Hz and 5 Hz", "protocol": "as §1, §2, §3\nWhole-cell recordings were performed at 34-35° C. from Lamina I or II neurones in the dorsal horn of the spinal cord slices using Axopatch 1D and/or Multiclamp 700B amplifies and using the “blind” version of the patch-clamp technique.\nPatch pipettes were pulled from thin-walled borosilicate glass with resistances of between 3 and 8 MS2 when filled with intracellular solution (140 mM potassium gluconate, 10 mM KCl, 1 mM EGTA-Na, 10 mM HEPES, 4 mM Na2ATP, 0.3 mM Na-GTP). The peptides of SEQ ID NOs:2, 3, 4 or 5 (LAT7771, LAT7772, LAT7773 or LAT7774) were diluted in the tissue bath at a concentration of 5 μM.\nA concentric bipolar stimulating electrode was placed appropriately either on the dorsal root or dorsal root entry zone to evoke postsynaptic potentials/currents in recorded cells (see FIG. 1). […] EPSPs/EPSCs were confirmed as monosynaptic on the basis of being characterised by a constant latency and rise-time with few failures.\nRecordings were monitored on an oscilloscope and stored on digital audio tapes for later off-line analysis. In addition, data were low-pass filtered at 2-5 kHz, (1 kHz for voltage-clamp data), digitized at 2-10 kHz and stored on a PC running pCLAMP 10 data acquisition software (Axon Instruments). Analysis of electrophysiological data was carried out using Clampfit 10 software."}, "[3]": {"conditions": "peptide 5 μM, responding neurones"}, "[4]": {"conditions": "prolactin 500 nM, control = 100"}},
  "note": "Several values for one entry are separate records, joined by “and”; a condition that tells them apart may be missing. Equal entries are not always repeated. Entries after “also recorded” stand apart in the source; their conditions may differ.",
  "data": [
    {"molecule": "CRIIHNNNCG [LAT7772]", "values": [
      {"measurement": "effect on membrane potential / postsynaptic membrane properties (in words)", "setting": "[1]; peptide 5 μM", "result": "overall had little effect on membrane potential; also recorded: small membrane depolarisation in 2 neurones; also recorded: both membrane depolarisations and hyperpolarisations; also recorded: hyperpolarisation"},
      {"measurement": "effect on neuronal input resistance (in words)", "setting": "[1]; peptide 5 μM", "result": "decrease in neuronal input resistance in all 5 neurones; also recorded: significant decrease in neuronal input resistance; also recorded: reduction in neuronal input resistance"},
      {"measurement": "neuronal input resistance, of control", "setting": "[1]; peptide 5 μM", "result": "60.1±12.3 % of control"},
      {"measurement": "change in neuronal input resistance", "setting": "[1]; peptide 5 μM vs control", "result": "149.1±81.7", "unit": "MS2"},
      {"measurement": "ΔIR, change in neuronal input resistance", "setting": "[1]; peptide 5 μM vs control, table prints control minus drug, text the magnitude", "result": 149.1, "unit": "MΩ"},
      {"measurement": "Input Resistance, mean in presence of peptide", "setting": "[1]; peptide 5 μM, all cells", "result": 172.3, "unit": "MΩ"},
      {"measurement": "neuronal input resistance in the presence of peptide", "setting": "[1]; peptide 5 μM, all cells", "result": "172.3±33.2", "unit": "MS2"},
      {"measurement": "Membrane Potential, mean in presence of peptide", "setting": "[1]; peptide 5 μM, all cells, ipsilateral to injury", "result": "−58.7±4.8 mV and −58.7 mV"},
      {"measurement": "Normalised Input Resistance, mean in presence of peptide", "setting": "[1]; peptide 5 μM, control = 100", "result": 60.1},
      {"measurement": "Normalised Input Resistance, ΔIR", "setting": "[1]; peptide 5 μM, control = 100", "result": 39.9},
      {"measurement": "reversal potential of peptide-induced response (intersection of VI relations)", "setting": "[1]; peptide 5 μM, individual neurones", "result": "around −78 mV and ~−55 mV and −100 mV and −60 mV and around −60 mV"},
      {"measurement": "membrane depolarisation in individual neurones", "setting": "[1]; [3]", "result": 12.7, "unit": "mV"},
      {"measurement": "membrane hyperpolarisation in individual neurones", "setting": "[1]; [3]", "result": "3.5 mV and 9.9 mV"},
      {"measurement": "Normalised Membrane Potential, mean in presence of peptide", "setting": "[1]; peptide 5 μM, rest = 100", "result": 98.6},
      {"measurement": "Normalised Membrane Potential, ΔVm", "setting": "[1]; peptide 5 μM, rest = 100", "result": 1.4},
      {"measurement": "effect on dorsal root-evoked EPSPs / excitatory synaptic transmission (in words)", "setting": "[2]; peptide 5 μM, dorsal root stimulation 0.1 Hz", "result": "suppressed dorsal root-evoked excitatory posts-synaptic potentials (EPSPs) in all neurones tested; also recorded: suppressive effect on EPSPs; also recorded: suppressed dorsal root afferent-mediated excitatory synaptic transmission"}
    ]},
    {"molecule": "Prolactin: native prolactin peptide (e.g., human prolactin of SEQ ID NO:30); parent prolactin protein (protein) MNIKGSPWKGSLLLLLVSNLLLCQSVAPLPICPGGAARCQVTLRDLFDRAVVLSHYIHNLSSEMFSEFDKRYTHGRGFITKAINSCHTSSLATPEDKEQAQQMNQKDFLSLIVSILRSWNEPLYHLVTEVRGMQEAPEAILSKAVEIEEQTKRLLEGMELIVSQVHPETKENEIYPVWSGLPSLQMADEESRLSAYYNLLHCLRRDSHKIDNYLKLLKCRIIHNNNC", "values": [
      {"measurement": "Input Resistance, mean in presence of prolactin", "setting": "[1]; prolactin 500 nM", "result": 637.3, "unit": "MΩ"},
      {"measurement": "effect on membrane potential (in words)", "setting": "[1]; prolactin 500 nM", "result": "principally induced membrane depolarisation"},
      {"measurement": "effect on neuronal input resistance (in words)", "setting": "[1]; prolactin 500 nM", "result": "increase in neuronal input resistance"},
      {"measurement": "neuronal input resistance in the presence of prolactin", "setting": "[1]; prolactin 500 nM", "result": "637.3±301.1", "unit": "MS2"},
      {"measurement": "increase in neuronal input resistance", "setting": "[1]; prolactin 500 nM vs control", "result": "79.0±60.5", "unit": "MS2"},
      {"measurement": "ΔIR, change in neuronal input resistance", "setting": "[1]; prolactin 500 nM vs control", "result": "−79.0", "unit": "MΩ"},
      {"measurement": "ΔVm, change in membrane potential", "setting": "[1]", "result": "−2.8", "unit": "mV"},
      {"measurement": "ΔVm, change in membrane potential", "setting": "[1]; listed as prolactin", "result": "2.8±2.0", "unit": "mV"},
      {"measurement": "Membrane Potential, mean in presence of prolactin", "setting": "[1]; prolactin 500 nM, all cells", "result": "−52.0", "unit": "mV"},
      {"measurement": "Membrane Potential, mean in presence of prolactin", "setting": "[1]; prolactin 500 nM, all cells, listed as prolactin", "result": "−52.0±8.4", "unit": "mV"},
      {"measurement": "Normalised Input Resistance, mean in presence of prolactin", "setting": "[1]; [4]", "result": 113.9},
      {"measurement": "Normalised Input Resistance, ΔIR", "setting": "[1]; [4]", "result": "−13.9"},
      {"measurement": "effect on membrane potential (in words)", "setting": "[1]; prolactin 500 nM, listed as prolactin", "result": "small membrane depolarisation in 2 neurones; also recorded: little effect on a further dorsal horn neurone; also recorded: marginal membrane depolarisation"},
      {"measurement": "reversal potential of prolactin-induced depolarisation (VI relations)", "setting": "[1]; prolactin 500 nM, one cell", "result": "around −90 mV"},
      {"measurement": "Normalised Membrane Potential, mean in presence of prolactin", "setting": "[1]; prolactin 500 nM, rest = 100", "result": 95.8},
      {"measurement": "Normalised Membrane Potential, ΔVm", "setting": "[1]; prolactin 500 nM, rest = 100", "result": 4.2},
      {"measurement": "effect on dorsal root-evoked IPSPs (in words)", "setting": "[2]", "result": "no effect on IPSPs evoked by dorsal root stimulation in one cell"},
      {"measurement": "effect on dorsal root-evoked IPSPs (in words)", "setting": "[2]; listed as prolactin", "result": "little effect on dorsal root stimulated inhibitory post-synaptic potentials (IPSPs)"}
    ]}
  ]
}
